# Test results as given in patent US20220289837A1, “Cystic Fibrosis Transmembrane Conductance Regulator Stabilizing Agents” (VIB VZW, priority 2019, published 2022).
# B1: G3a: non-stabilizing nanobody, SEQ ID NO:50, recognizes the structurally diverse region of NBD1 (protein)
# VHH: QVQLQESGGGLVQAGGSLRLSCTASGRAFSWYVMGWFRQAPGKEREFVATVSGNGSRRDYADSVKGRFTISRDNAKNTVYLQMNSLKPEDTAVYYCAASSTYYYTDPEKYDYWGQGTQVTVSS
# modifications: G3a Nanobody
# Biological target: T1, 2PT-NBD1 (Homo sapiens, UniProt P13569, A534P/I539T/S492P/V470M)
# T1 construct: 2PT-NBD1 mutants (residues 387-646 containing the mutations S492P, A534P, I539T); His6-SUMO (N, cleaved yes); made in house; host or cells: Escherichia coli BL21(DE3) pLysS
# T1 sequence (P13569 388-646 V470M/S492P/A534P/I539T): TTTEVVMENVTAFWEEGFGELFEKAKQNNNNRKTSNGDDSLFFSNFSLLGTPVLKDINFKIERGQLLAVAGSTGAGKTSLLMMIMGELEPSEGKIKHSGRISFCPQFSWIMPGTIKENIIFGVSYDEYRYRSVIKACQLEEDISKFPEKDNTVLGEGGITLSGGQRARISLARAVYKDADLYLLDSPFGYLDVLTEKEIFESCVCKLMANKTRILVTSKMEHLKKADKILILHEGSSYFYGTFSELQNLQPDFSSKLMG
# Experiment: NBD1 ELISA dose-response, nanobody binding to immobilized 2PT-NBD1
# Conditions: immobilized biotinylated 2PT-NBD1
# Description: For dose-response assays, Nunc MaxiSorp 96-well plates (ThermoScientific), were coated with 5 μg/ml NeutrAvidin Biotin-Binding protein (ThermoScientific) overnight at 4° C. and blocked 2 h at room temperature (RT) with 2% milk in phosphate-buffered saline (PBS). Each new reagent addition was preceded by three washes with 200 μl of NBD1 buffer (20 mM HEPES pH 7.5, 150 mM NaCl, and 10% (w/v) glycerol, 10% (w/v) ethylene glycol, 2 mM ATP, 3 mM MgCl2). Then, biotinylated purified NBD1 proteins at 5 μg/ml were immobilized 30 min at RT followed by 1 h RT incubation with 100 μl various concentrations (0-20 μg/ml) of purified nanobodies. […] 50 μl of 1-Step UltraTMB-ELISA (ThermoScientific) was used as a substrate for the peroxidase and intensity of the reaction was proportional to absorbance measured at 450 nm with SynergyMx (BioTek) after addition of 50 μl H2SO4 at 1M.
# Affinity constants (KD) and thermodynamic parameters from ITC experiments were determined using one-site binding model with MicroCal Origin 7.0 software (Origin Lab Corp.). […] DSC data were analyzed with the MicroCal Origin 7.0 software (Origin Lab Corp.), from which the unfolding temperature (Tm) was obtained.
molecule,measurement,value
B1,EC50 of binding to 2PT-NBD1,weaker binding potency
